These sequences were tested on AncSZ (assay: phosphorylation enrichment, bacterial display (enrichment ratio); higher = better substrate or ligand; peptides without Tyr show the background).
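Note: 11-residue human phosphosite peptides and single-mutation variants displayed on the E. coli surface, counted by deep sequencing, each peptide's frequency after selection divided by its frequency in the unselected input library; frequency after pTyr selection over input frequency; kinase dosed for 20-30% of maximal phosphorylation in three min.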

First: DQNVEYKGTVS [FHL1_Y117_W122S]
Second: NHQFDYTFDWT [CSNK1A1_Y294_YF]
The phosphorylation enrichment of the first is lower: 0.801 for the first, 1.23 for the second.

Compared with PADCRYFAFPQ [GAMT_Y222_YF], HNLPIYEGYAL [ACTA1_Y168_V165L] is lower in phosphorylation enrichment: 1.35 for the first, 1.24 for the second.

Going from EMFNPCFGLFE [NEDD4L_Y679_Y679C_YF] to MSRNLYSGDYY [DDR2_Y736], the phosphorylation enrichment rises from 1.27 to 2.08.

First: PNAFIYVVQLP [L1CAM_Y420_A415P_YF]
Second: KLKEKYEKDIA [HMGB1_Y155]
The phosphorylation enrichment of the first is higher: 1.39 for the first, 0.704 for the second.

First: IFRASYFRKGG [ALK_Y1282_YF]
Second: LADKPYTFEYY [FXN_Y118_D122Y]
The phosphorylation enrichment of the first is higher: 1.02 for the first, 1 for the second.

First: KHMADYPDCKY [SOX11_Y113_Y116C]
Second: RHLLRYLSWTV [CLCNKB_Y93_S88R]
The phosphorylation enrichment of the first is lower: 0.65 for the first, 0.883 for the second.

Compared with GKTFTYRSVFF [ZNF80_Y200], AVRVFYRKCPR [EPHB2_Y194] is higher in phosphorylation enrichment: 0.809 for the first, 0.948 for the second.

Going from QTEAPYRFIYM [PTPN11_Y511_Q510P] to FSCLPYGRLAY [SLC52A2_Y305], the phosphorylation enrichment falls from 1.41 to 1.01.

Compared with RDWSLYFKIIE [KRT18_Y129_H128L], WNDLDYMDSRR [GAA_Y407] is lower in phosphorylation enrichment: 1.66 for the first, 1.34 for the second.

Going from LFEDHYLLGTS [ASS1_Y87_R86H_YF] to TGFRPYVCPFD [YY1_Y383_D380Y_YF], the phosphorylation enrichment rises from 1.27 to 1.54.

Going from EKHGQYLIGHG [EPHB4_Y581_D576E] to DRLASSLDKVR [KRT10_Y160_Y160S], the phosphorylation enrichment falls from 0.618 to 0.438.

Going from KEKLCYVAPDF [ACTA1_Y220_L223P] to VTQEPYELYCE [CBL_Y368_Q367P], the phosphorylation enrichment rises from 1.4 to 1.65.

First: NLRQQYNSPQE [UMPS_Y432_G429R]
Second: RSAGKYDVFLI [MECP2_Y120_YF]
The phosphorylation enrichment of the first is higher: 0.634 for the first, 0.558 for the second.

First: TFFQMYDKGLV [IARS2_Y231_YF]
Second: AFLQTYAHEVS [PCDHGA5_Y753_S754A]
The phosphorylation enrichment of the first is lower: 0.862 for the first, 0.896 for the second.

In the case of AEDKPYAELWM [MPI_Y46], the phosphorylation enrichment is reported as 1.38.

The sequences below were run against EPHB1 (UniProt P54762) in the same assay as above.
Sequence of EPHB1 (P54762 whole entry, looked up): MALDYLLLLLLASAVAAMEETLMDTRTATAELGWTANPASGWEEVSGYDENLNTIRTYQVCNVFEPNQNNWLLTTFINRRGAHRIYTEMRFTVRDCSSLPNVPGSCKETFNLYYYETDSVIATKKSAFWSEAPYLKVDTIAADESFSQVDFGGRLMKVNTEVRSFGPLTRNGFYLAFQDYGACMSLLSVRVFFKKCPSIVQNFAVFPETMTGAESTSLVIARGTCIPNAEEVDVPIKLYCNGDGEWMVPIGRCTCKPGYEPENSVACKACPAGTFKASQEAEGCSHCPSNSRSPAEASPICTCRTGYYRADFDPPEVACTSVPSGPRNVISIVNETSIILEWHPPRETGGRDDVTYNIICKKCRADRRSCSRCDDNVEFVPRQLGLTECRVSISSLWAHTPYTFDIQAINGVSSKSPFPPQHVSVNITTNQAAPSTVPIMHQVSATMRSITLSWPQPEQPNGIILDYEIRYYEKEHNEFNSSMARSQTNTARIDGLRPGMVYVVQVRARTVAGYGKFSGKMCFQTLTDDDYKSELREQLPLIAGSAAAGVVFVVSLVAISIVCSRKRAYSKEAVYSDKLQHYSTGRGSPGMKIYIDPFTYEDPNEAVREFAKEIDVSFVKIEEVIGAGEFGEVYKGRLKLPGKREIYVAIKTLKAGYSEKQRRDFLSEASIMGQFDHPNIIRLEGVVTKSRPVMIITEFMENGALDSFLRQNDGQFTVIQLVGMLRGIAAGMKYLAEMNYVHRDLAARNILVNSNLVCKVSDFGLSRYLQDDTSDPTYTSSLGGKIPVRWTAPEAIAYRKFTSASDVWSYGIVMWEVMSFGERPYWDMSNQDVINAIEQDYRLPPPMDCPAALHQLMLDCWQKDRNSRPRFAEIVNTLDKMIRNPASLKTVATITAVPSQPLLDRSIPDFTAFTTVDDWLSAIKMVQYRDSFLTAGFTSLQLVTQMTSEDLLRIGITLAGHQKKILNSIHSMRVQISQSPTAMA

Going from DQNVEYKGTVS [FHL1_Y117_W122S] to NHQFDYTFDWT [CSNK1A1_Y294_YF], the phosphorylation enrichment rises from 0.508 to 0.696.

First: PADCRYFAFPQ [GAMT_Y222_YF]
Second: HNLPIYEGYAL [ACTA1_Y168_V165L]
The phosphorylation enrichment of the first is lower: 1.29 for the first, 17 for the second.

Compared with EMFNPCFGLFE [NEDD4L_Y679_Y679C_YF], MSRNLYSGDYY [DDR2_Y736] is higher in phosphorylation enrichment: 0.71 for the first, 11.3 for the second.

First: PNAFIYVVQLP [L1CAM_Y420_A415P_YF]
Second: KLKEKYEKDIA [HMGB1_Y155]
The phosphorylation enrichment of the first is higher: 1.2 for the first, 0.418 for the second.

Compared with IFRASYFRKGG [ALK_Y1282_YF], LADKPYTFEYY [FXN_Y118_D122Y] is higher in phosphorylation enrichment: 0.55 for the first, 0.782 for the second.

Going from KHMADYPDCKY [SOX11_Y113_Y116C] to RHLLRYLSWTV [CLCNKB_Y93_S88R], the phosphorylation enrichment rises from 0.483 to 0.712.

Going from GKTFTYRSVFF [ZNF80_Y200] to AVRVFYRKCPR [EPHB2_Y194], the phosphorylation enrichment falls from 0.464 to 0.345.

Going from QTEAPYRFIYM [PTPN11_Y511_Q510P] to FSCLPYGRLAY [SLC52A2_Y305], the phosphorylation enrichment falls from 0.93 to 0.559.

First: RDWSLYFKIIE [KRT18_Y129_H128L]
Second: WNDLDYMDSRR [GAA_Y407]
The phosphorylation enrichment of the first is higher: 0.799 for the first, 0.698 for the second.

First: LFEDHYLLGTS [ASS1_Y87_R86H_YF]
Second: TGFRPYVCPFD [YY1_Y383_D380Y_YF]
The phosphorylation enrichment of the first is lower: 0.618 for the first, 2.1 for the second.

First: EKHGQYLIGHG [EPHB4_Y581_D576E]
Second: DRLASSLDKVR [KRT10_Y160_Y160S]
The phosphorylation enrichment of the first is higher: 0.413 for the first, 0.34 for the second.

Going from KEKLCYVAPDF [ACTA1_Y220_L223P] to VTQEPYELYCE [CBL_Y368_Q367P], the phosphorylation enrichment rises from 0.558 to 0.763.

Compared with NLRQQYNSPQE [UMPS_Y432_G429R], RSAGKYDVFLI [MECP2_Y120_YF] is higher in phosphorylation enrichment: 0.382 for the first, 0.697 for the second.

Going from TFFQMYDKGLV [IARS2_Y231_YF] to AFLQTYAHEVS [PCDHGA5_Y753_S754A], the phosphorylation enrichment falls from 0.531 to 0.455.

For AEDKPYAELWM [MPI_Y46], the phosphorylation enrichment was 0.868.

These sequences were tested against EPHB2 (UniProt P29323) in the same assay as above.
Sequence of EPHB2 (P29323 whole entry, looked up): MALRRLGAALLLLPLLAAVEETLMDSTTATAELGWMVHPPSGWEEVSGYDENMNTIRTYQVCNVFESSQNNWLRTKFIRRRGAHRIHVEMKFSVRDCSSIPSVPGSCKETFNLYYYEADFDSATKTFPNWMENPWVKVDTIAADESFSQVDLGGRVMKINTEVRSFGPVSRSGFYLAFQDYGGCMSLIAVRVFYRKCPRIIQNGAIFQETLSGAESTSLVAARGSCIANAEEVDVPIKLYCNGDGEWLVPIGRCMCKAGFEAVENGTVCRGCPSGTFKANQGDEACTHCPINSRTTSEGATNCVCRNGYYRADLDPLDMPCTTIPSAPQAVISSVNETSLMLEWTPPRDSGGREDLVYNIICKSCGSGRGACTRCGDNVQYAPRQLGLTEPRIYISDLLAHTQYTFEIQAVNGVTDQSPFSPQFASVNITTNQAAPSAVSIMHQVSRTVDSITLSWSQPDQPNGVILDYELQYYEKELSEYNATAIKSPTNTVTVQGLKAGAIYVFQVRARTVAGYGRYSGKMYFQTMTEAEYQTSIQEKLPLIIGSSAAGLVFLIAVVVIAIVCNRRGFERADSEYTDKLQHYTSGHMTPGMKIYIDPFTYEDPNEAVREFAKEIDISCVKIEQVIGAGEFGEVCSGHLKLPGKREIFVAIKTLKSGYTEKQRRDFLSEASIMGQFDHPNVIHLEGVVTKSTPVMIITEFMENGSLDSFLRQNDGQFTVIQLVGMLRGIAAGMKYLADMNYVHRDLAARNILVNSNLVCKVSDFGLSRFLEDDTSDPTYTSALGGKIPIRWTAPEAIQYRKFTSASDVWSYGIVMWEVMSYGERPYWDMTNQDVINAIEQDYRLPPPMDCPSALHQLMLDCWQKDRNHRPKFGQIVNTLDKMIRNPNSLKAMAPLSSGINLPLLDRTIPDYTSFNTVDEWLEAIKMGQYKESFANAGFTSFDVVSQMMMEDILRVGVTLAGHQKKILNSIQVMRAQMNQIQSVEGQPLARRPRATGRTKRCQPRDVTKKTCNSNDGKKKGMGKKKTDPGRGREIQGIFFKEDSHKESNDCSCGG

First: DQNVEYKGTVS [FHL1_Y117_W122S]
Second: NHQFDYTFDWT [CSNK1A1_Y294_YF]
The phosphorylation enrichment of the first is lower: 0.616 for the first, 0.721 for the second.

First: PADCRYFAFPQ [GAMT_Y222_YF]
Second: HNLPIYEGYAL [ACTA1_Y168_V165L]
The phosphorylation enrichment of the first is lower: 0.959 for the first, 22.7 for the second.

Going from EMFNPCFGLFE [NEDD4L_Y679_Y679C_YF] to MSRNLYSGDYY [DDR2_Y736], the phosphorylation enrichment rises from 0.687 to 14.6.

Compared with PNAFIYVVQLP [L1CAM_Y420_A415P_YF], KLKEKYEKDIA [HMGB1_Y155] is lower in phosphorylation enrichment: 1.53 for the first, 0.495 for the second.

Compared with IFRASYFRKGG [ALK_Y1282_YF], LADKPYTFEYY [FXN_Y118_D122Y] is higher in phosphorylation enrichment: 0.621 for the first, 0.719 for the second.

Going from KHMADYPDCKY [SOX11_Y113_Y116C] to RHLLRYLSWTV [CLCNKB_Y93_S88R], the phosphorylation enrichment falls from 0.783 to 0.591.

Going from GKTFTYRSVFF [ZNF80_Y200] to AVRVFYRKCPR [EPHB2_Y194], the phosphorylation enrichment falls from 0.466 to 0.463.

Going from QTEAPYRFIYM [PTPN11_Y511_Q510P] to FSCLPYGRLAY [SLC52A2_Y305], the phosphorylation enrichment falls from 1.25 to 0.513.

First: RDWSLYFKIIE [KRT18_Y129_H128L]
Second: WNDLDYMDSRR [GAA_Y407]
The phosphorylation enrichment of the first is higher: 0.576 for the first, 0.532 for the second.

Compared with LFEDHYLLGTS [ASS1_Y87_R86H_YF], TGFRPYVCPFD [YY1_Y383_D380Y_YF] is higher in phosphorylation enrichment: 0.586 for the first, 0.978 for the second.

First: EKHGQYLIGHG [EPHB4_Y581_D576E]
Second: DRLASSLDKVR [KRT10_Y160_Y160S]
The phosphorylation enrichment of the first is higher: 0.408 for the first, 0.364 for the second.

First: KEKLCYVAPDF [ACTA1_Y220_L223P]
Second: VTQEPYELYCE [CBL_Y368_Q367P]
The phosphorylation enrichment of the first is higher: 0.637 for the first, 0.621 for the second.

Compared with NLRQQYNSPQE [UMPS_Y432_G429R], RSAGKYDVFLI [MECP2_Y120_YF] is higher in phosphorylation enrichment: 0.439 for the first, 0.563 for the second.

First: TFFQMYDKGLV [IARS2_Y231_YF]
Second: AFLQTYAHEVS [PCDHGA5_Y753_S754A]
The phosphorylation enrichment of the first is higher: 0.569 for the first, 0.565 for the second.

Sequence AEDKPYAELWM [MPI_Y46] has a phosphorylation enrichment of 0.729.

Each sequence was assayed against FGFR1 (UniProt P11362) in the same assay as above.
Sequence of FGFR1 (P11362 whole entry, looked up): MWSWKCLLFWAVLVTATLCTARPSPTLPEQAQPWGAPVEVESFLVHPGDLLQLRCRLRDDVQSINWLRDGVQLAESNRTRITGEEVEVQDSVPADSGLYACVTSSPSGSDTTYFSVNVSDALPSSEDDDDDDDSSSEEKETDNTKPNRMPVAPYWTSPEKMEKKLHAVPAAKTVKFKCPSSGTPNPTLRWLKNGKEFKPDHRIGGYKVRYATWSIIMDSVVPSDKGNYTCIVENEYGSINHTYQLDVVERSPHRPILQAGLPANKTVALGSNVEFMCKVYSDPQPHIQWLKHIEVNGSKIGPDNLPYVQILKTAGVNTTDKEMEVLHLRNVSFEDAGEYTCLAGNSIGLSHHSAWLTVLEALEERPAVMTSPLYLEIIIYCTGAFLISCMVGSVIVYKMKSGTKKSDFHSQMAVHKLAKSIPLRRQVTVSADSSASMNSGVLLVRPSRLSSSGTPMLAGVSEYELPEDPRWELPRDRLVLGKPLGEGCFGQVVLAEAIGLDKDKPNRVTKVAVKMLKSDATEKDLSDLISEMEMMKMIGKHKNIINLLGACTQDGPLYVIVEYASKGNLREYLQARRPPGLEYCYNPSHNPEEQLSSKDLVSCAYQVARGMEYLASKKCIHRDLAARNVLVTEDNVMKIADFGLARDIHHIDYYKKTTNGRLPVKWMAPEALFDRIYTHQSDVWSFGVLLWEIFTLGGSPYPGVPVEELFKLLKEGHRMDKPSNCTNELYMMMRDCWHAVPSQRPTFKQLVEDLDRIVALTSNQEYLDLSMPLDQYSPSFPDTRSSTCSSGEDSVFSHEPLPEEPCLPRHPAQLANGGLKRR

Compared with DQNVEYKGTVS [FHL1_Y117_W122S], NHQFDYTFDWT [CSNK1A1_Y294_YF] is higher in phosphorylation enrichment: 0.525 for the first, 3.58 for the second.

Compared with PADCRYFAFPQ [GAMT_Y222_YF], HNLPIYEGYAL [ACTA1_Y168_V165L] is lower in phosphorylation enrichment: 2.35 for the first, 0.547 for the second.

First: EMFNPCFGLFE [NEDD4L_Y679_Y679C_YF]
Second: MSRNLYSGDYY [DDR2_Y736]
The phosphorylation enrichment of the first is lower: 0.667 for the first, 7.13 for the second.

First: PNAFIYVVQLP [L1CAM_Y420_A415P_YF]
Second: KLKEKYEKDIA [HMGB1_Y155]
The phosphorylation enrichment of the first is higher: 0.797 for the first, 0.536 for the second.

Compared with IFRASYFRKGG [ALK_Y1282_YF], LADKPYTFEYY [FXN_Y118_D122Y] is higher in phosphorylation enrichment: 0.518 for the first, 1.08 for the second.

Compared with KHMADYPDCKY [SOX11_Y113_Y116C], RHLLRYLSWTV [CLCNKB_Y93_S88R] is lower in phosphorylation enrichment: 0.635 for the first, 0.532 for the second.

Going from GKTFTYRSVFF [ZNF80_Y200] to AVRVFYRKCPR [EPHB2_Y194], the phosphorylation enrichment rises from 0.388 to 0.428.

Going from QTEAPYRFIYM [PTPN11_Y511_Q510P] to FSCLPYGRLAY [SLC52A2_Y305], the phosphorylation enrichment falls from 7.24 to 0.463.

Compared with RDWSLYFKIIE [KRT18_Y129_H128L], WNDLDYMDSRR [GAA_Y407] is higher in phosphorylation enrichment: 0.395 for the first, 0.59 for the second.

Going from LFEDHYLLGTS [ASS1_Y87_R86H_YF] to TGFRPYVCPFD [YY1_Y383_D380Y_YF], the phosphorylation enrichment rises from 0.494 to 1.1.

First: EKHGQYLIGHG [EPHB4_Y581_D576E]
Second: DRLASSLDKVR [KRT10_Y160_Y160S]
The phosphorylation enrichment of the first is higher: 0.503 for the first, 0.35 for the second.

Compared with KEKLCYVAPDF [ACTA1_Y220_L223P], VTQEPYELYCE [CBL_Y368_Q367P] is lower in phosphorylation enrichment: 0.635 for the first, 0.554 for the second.

First: NLRQQYNSPQE [UMPS_Y432_G429R]
Second: RSAGKYDVFLI [MECP2_Y120_YF]
The phosphorylation enrichment of the first is higher: 0.464 for the first, 0.352 for the second.

Compared with TFFQMYDKGLV [IARS2_Y231_YF], AFLQTYAHEVS [PCDHGA5_Y753_S754A] is higher in phosphorylation enrichment: 0.52 for the first, 0.621 for the second.

In the case of AEDKPYAELWM [MPI_Y46], the phosphorylation enrichment is reported as 1.45.
